According to patent CN114028561A (JIANGSU QYUNS BIOMEDICAL CO LTD, dated 2022):

Legend:
食蟹猴TSLP = 食蟹猴TSLP (食蟹猴 (cynomolgus monkey), UniProt A0A7N9CAT7 29-159); test: cell-based or functional assay
[1] = molecular target: T1, 人胸腺基质淋巴细胞生成素(Human Thymic Stromal Lymphopoietin, TSLP) (human, UniProt Q969D9 29-159); test: SPR (Biacore T200), antibody captured on Protein A chip, human TSLP as analyte, 25℃, 1:1 model, mean of three runs
T1 construct: also called 人TSLP; hTSLP

天然TSLP = test: cell-based or functional assay
[2] = molecular target: T1, 人胸腺基质淋巴细胞生成素(Human Thymic Stromal …); test: cell-based or functional assay

食蟹猴TSLP, sequence (A0A7N9CAT7 entry or part of it): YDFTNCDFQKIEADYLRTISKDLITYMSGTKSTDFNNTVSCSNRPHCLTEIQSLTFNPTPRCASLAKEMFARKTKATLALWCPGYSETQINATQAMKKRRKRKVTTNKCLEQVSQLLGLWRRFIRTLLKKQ

B1: Tezepelumab (antibody, V domains shown)
VH: QMQLVESGGGVVQPGRSLRLSCAASGFTFRTYGMHWVRQAPGKGLEWVAVIWYDGSNKHYADSVKGRFTITRDNSKNTLNLQMNSLRAEDTAVYYCARAPQWELVHEAFDIWGQGTMVTVSS
VL: SYVLTQPPSVSVAPGQTARITCGGNNLGSKSVHWYQQKPGQAPVLVVYDDSDRPSWIPERFSGSNSGNTATLTISRGEAGDEADYYCQVWDSSSDHVVFGGGTKLTVLG
Q: For B1, which “IC50 of inhibition of cynomolgus TSLP-induced STAT5 phosphorylation in SW756-STAT5-Luciferase reporter cells” value (食蟹猴TSLP) is on record?
A: The value was 1.88 ng/mL.

B2: QX008N(HZD8G2-57) (antibody, human IgG1, kappa, V domains shown)
VH: EVQLVESGGGLVQPGGSLRLSCAASGFSLSSYYMSWVRQAPGKGLEWVGFISYGGSAYHATWAQGRFTISKDNSKNTLYLQMNSLRAEDTAVYYCAREFRSMTYGAEWGIWGQGTLVTVSS
VL: AYQMTQSPSSVSASVGDRVTITCQASESIYDTLAWYQQKPGKAPKLLIYSASSLASGVPSRFSGSGSGTDFTLTISSLQPEDFATYYCQQGYTMPDVDKNPFGGGTKVEIKR
notes: also called 抗人TSLP单克隆抗体
Q: B2 was tested. Which Kd [1] did it give?
A: Its Kd is 0.0175 nM.

Q: And the koff [1]?
A: Its koff is 2.99e-05 s⁻¹.

Q: And the kon [1]?
A: Its kon is 1.74e+06 M⁻¹ s⁻¹.

Q: What about the “IC50 of inhibition of natural TSLP-induced STAT5 phosphorylation in SW756-STAT5-Luciferase reporter cells” value (天然TSLP) of the same binder?
A: The value was 0.462 ng/mL.

Q: What about the “IC50 of inhibition of cynomolgus TSLP-induced STAT5 phosphorylation in SW756-STAT5-Luciferase reporter cells” value (食蟹猴TSLP) of the same binder?
A: Its value is 0.889 ng/mL.

Q: And the “IC50 of inhibition of human TSLP-induced STAT5 phosphorylation in SW756-STAT5-Luciferase reporter cells” value [2]?
A: Its value is 0.837 ng/mL.

Q: What about the “IC50 of inhibition of human TSLP-induced TARC (CCL17) release from human PBMC” value [2] of the same binder?
A: Its value is 77.1 ng/mL.

Q: And the “IC50 of inhibition of human TSLP-induced TARC (CCL17) release from human whole blood” value [2]?
A: Its value is 0.839 ng/mL.
